Legend:
Assay in all cases: SPR
[1] = target: anti-Aβ hIgG4 YEY (human)
[2] = target: anti-BACE1 hIgG1 M252Y / Q311A / N434Y / Y436I (human)
[3] = target: anti-BACE1 hIgG1 M252Y / Q311I / N434Y / Y436I (human)
[4] = target: anti-BACE1 hIgG1 M252Y / T307Q / Q311A / N434Y (human)
[5] = target: anti-BACE1 hIgG1 M252Y / V308P / N434Y (human)
[6] = target: anti-BACE1 hIgG1 Q5 (M252Y / Q311I / N434Y / Y436I) (human)
[7] = target: anti-BACE1 hIgG1 Q7 (M252Y / Q311A / N434Y / Y436I) (human)
M252F mIgG2a (mouse) = target: M252F mIgG2a (mouse)
M252Y mIgG2a (mouse) = target: M252Y mIgG2a (mouse)
[8] = target: M252Y.Q309T mIgG2a (mouse)

cynomolgus monkey FcRn (from UniProt Q8SPV9 24-365) (receptor)
Kd [1]: 9 nM

human neonatal Fc receptor (hFcRn) (from UniProt P55899 24-365; P61769 21-119)
Kd [2]: 6 nM | Kd [3]: 252 nM | Kd [4]: 333 nM | Kd [5]: 127 nM | Kd [6]: 252 nM | Kd [7]: 6 nM

mouse FcRn (from UniProt Q61559 22-365) (receptor)
Kd (M252F mIgG2a (mouse)): 3320 nM | Kd (M252Y mIgG2a (mouse)): 826 nM | Kd [8]: 308 nM

Reference: paper PMC12049489
